According to paper PMC9352680, “A comprehensive thermodynamic model for RNA binding by the Saccharomyces cerevisiae Pumilio protein PUF4”:
Where a chain is given by its changes, count along the chain named. Numbers in names are those of the source.

T1: PUF4 RNA-binding domain (Saccharomyces cerevisiae, UniProt P25339 537-888)
T1 sequence: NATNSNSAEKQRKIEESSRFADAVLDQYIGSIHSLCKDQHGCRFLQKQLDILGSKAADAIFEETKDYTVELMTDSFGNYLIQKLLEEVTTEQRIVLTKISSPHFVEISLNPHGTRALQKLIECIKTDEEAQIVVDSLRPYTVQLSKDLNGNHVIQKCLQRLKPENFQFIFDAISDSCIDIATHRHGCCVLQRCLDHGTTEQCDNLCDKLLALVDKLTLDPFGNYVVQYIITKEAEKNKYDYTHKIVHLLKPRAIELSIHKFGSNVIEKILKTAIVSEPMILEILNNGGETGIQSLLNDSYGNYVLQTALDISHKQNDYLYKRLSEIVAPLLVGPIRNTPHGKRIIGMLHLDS

B1: Id_ii_S2_P5E.4_K5.3_C5.2_[C-2G]_H5.3_A5.1_F5.1_T5.2_[T11A]_[A12T] (ssRNA)
RNA: UUUGAUUAAUAUGAUAUCGUUCUUUCUGUACACUUAUUAAUUUCUUUCUCGAUAUCAUAUUAAUCUUU
B2: Id_ii_S2_P5E.4_K5.3_C5.2_[C-2T]_[T-1A]_H5.3_A5.1_F5.1_T5.2_[T11C]_[A12G] (ssRNA)
RNA: B1 RNA with G28U, U29A, A40C, U41G
B3: Id_ii_S2_P5E.4_K5.3_C5.2_[C-2A]_[T-1C]_H5.3_A5.1_F5.1_T5.2_[T11G]_[A12C] (ssRNA)
RNA: B1 RNA with G28A, U29C, A40G, U41C
B4: Id_ii_S2_P5E.4_K5.3_C5.2_[C-2T]_[T-1A]_H5.3_A5.1_F5.1_T5.2_[T11A]_[A12T] (ssRNA)
RNA: B1 RNA with G28U, U29A
B5: Id_ii_S2_P5E.4_K5.3_C5.2_[C-2G]_H5.3_A5.1_F5.1_T5.2 (ssRNA)
RNA: B1 RNA with A40U, U41A
B6: Id_ii_S2_P5E.4_K5.3_C5.2_[C-2G]_H5.3_A5.1_F5.1_T5.2_[T11A] (ssRNA)
RNA: B1 RNA with U41A
B7: Id_ii_S2_P5E.4_K5.3_C5.2_[C-2A]_[T-1C]_H5.3_A5.1_F5.1_T5.2_[T11C] (ssRNA)
RNA: B1 RNA with G28A, U29C, A40C, U41A
B8: Id_ii_S2_P5E.4_K5.3_C5.2_[C-2A]_[T-1A]_H5.3_A5.1_F5.1_T5.2_[A12C] (ssRNA)
RNA: B1 RNA with G28A, U29A, A40U, U41C
B9: Id_ii_S2_P5E.4_K5.3_C5.2_[C-2T]_[T-1A]_H5.3_A5.1_F5.1_T5.2_[T11C] (ssRNA)
RNA: B1 RNA with G28U, U29A, A40C, U41A
B10: Id_ii_S2_P5E.4_K5.3_C5.2_[C-2T]_[T-1C]_H5.3_A5.1_F5.1_T5.2_[T11C] (ssRNA)
RNA: B1 RNA with G28U, U29C, A40C, U41A
B11: Id_ii_S2_P5E.4_K5.3_C5.2_[C-2T]_H5.3_A5.1_F5.1_T5.2_[T11A]_[A12T] (ssRNA)
RNA: B1 RNA with G28U
B12: Id_ii_S2_P5E.4_K5.3_C5.2_[C-2A]_[T-1A]_H5.3_A5.1_F5.1_T5.2_[T11A] (ssRNA)
RNA: B1 RNA with G28A, U29A, U41A
B13: Id_ii_S2_P5E.4_K5.3_C5.2_[C-2T]_H5.3_A5.1_F5.1_T5.2_[T11C]_[A12T] (ssRNA)
RNA: B1 RNA with G28U, A40C
B14: Id_ii_S2_P5E.4_K5.3_C5.2_[C-2A]_[T-1C]_H5.3_A5.1_F5.1_T5.2_[A12T] (ssRNA)
RNA: B1 RNA with G28A, U29C, A40U
B15: Id_ii_S2_P5E.4_K5.3_C5.2_[C-2T]_H5.3_A5.1_F5.1_T5.2_[T11C]_[A12C] (ssRNA)
RNA: B1 RNA with G28U, A40C, U41C
B16: Id_ii_S2_P5E.4_K5.3_C5.2_[C-2A]_[T-1C]_H5.3_A5.1_F5.1_T5.2_[T11C]_[A12C] (ssRNA)
RNA: B1 RNA with G28A, U29C, A40C, U41C
B17: Id_ii_S2_P5E.4_K5.3_C5.2_[C-2T]_[T-1C]_H5.3_A5.1_F5.1_T5.2_[A12C] (ssRNA)
RNA: B1 RNA with G28U, U29C, A40U, U41C
B18: Id_ii_S2_P5E.4_K5.3_C5.2_[C-2T]_[T-1C]_H5.3_A5.1_F5.1_T5.2_[T11C]_[A12T] (ssRNA)
RNA: B1 RNA with G28U, U29C, A40C
B19: Id_ii_S2_P5E.4_K5.3_C5.2_[C-2A]_[T-1C]_H5.3_A5.1_F5.1_T5.2 (ssRNA)
RNA: B1 RNA with G28A, U29C, A40U, U41A
B20: Id_ii_S2_P5E.4_K5.3_C5.2_[C-2T]_[T-1A]_H5.3_A5.1_F5.1_T5.2_[A12C] (ssRNA)
RNA: B1 RNA with G28U, U29A, A40U, U41C
B21: Id_ii_S2_P5E.4_K5.3_C5.2_[C-2A]_[T-1C]_H5.3_A5.1_F5.1_T5.2_[T11A] (ssRNA)
RNA: B1 RNA with G28A, U29C, U41A
B22: Id_ii_S2_P5E.4_K5.3_C5.2_[C-2T]_[T-1C]_H5.3_A5.1_F5.1_T5.2_[T11A]_[A12T] (ssRNA)
RNA: B1 RNA with G28U, U29C
B23: Id_ii_S2_P5E.4_K5.3_C5.2_[C-2T]_[T-1A]_H5.3_A5.1_F5.1_T5.2 (ssRNA)
RNA: B1 RNA with G28U, U29A, A40U, U41A
B24: Id_ii_S2_P5E.4_K5.3_C5.2_[C-2T]_H5.3_A5.1_F5.1_T5.2_[T11C]_[A12G] (ssRNA)
RNA: B1 RNA with G28U, A40C, U41G
B25: Id_ii_S2_P5E.4_K5.3_C5.2_[C-2T]_[T-1C]_H5.3_A5.1_F5.1_T5.2_[T11C]_[A12C] (ssRNA)
RNA: B1 RNA with G28U, U29C, A40C, U41C
B26: Id_ii_S2_P5E.4_K5.3_C5.2_[C-2T]_H5.3_A5.1_F5.1_T5.2_[T11A]_[A12C] (ssRNA)
RNA: B1 RNA with G28U, U41C
B27: Id_ii_S2_P5E.4_K5.3_C5.2_[C-2T]_H5.3_A5.1_F5.1_T5.2_[A12T] (ssRNA)
RNA: B1 RNA with G28U, A40U
B28: Id_ii_S2_P5E.4_K5.3_C5.2_[C-2T]_[T-1C]_H5.3_A5.1_F5.1_T5.2 (ssRNA)
RNA: B1 RNA with G28U, U29C, A40U, U41A
B29: Id_ii_S2_P5E.4_K5.3_C5.2_[C-2A]_[T-1C]_H5.3_A5.1_F5.1_T5.2_[A12C] (ssRNA)
RNA: B1 RNA with G28A, U29C, A40U, U41C
B30: Id_ii_S2_P5E.4_K5.3_C5.2_[C-2A]_[T-1A]_H5.3_A5.1_F5.1_T5.2_[T11C]_[A12G] (ssRNA)
RNA: B1 RNA with G28A, U29A, A40C, U41G
B31: Id_ii_S2_P5E.4_K5.3_C5.2_[C-2T]_H5.3_A5.1_F5.1_T5.2_[T11G]_[A12C] (ssRNA)
RNA: B1 RNA with G28U, A40G, U41C
B32: Id_ii_S2_P5E.4_K5.3_C5.2_[C-2G]_H5.3_A5.1_F5.1_T5.2_[A12C] (ssRNA)
RNA: B1 RNA with A40U, U41C
B33: Id_ii_S2_P5E.4_K5.3_C5.2_[C-2T]_H5.3_A5.1_F5.1_T5.2_[A12C] (ssRNA)
RNA: B1 RNA with G28U, A40U, U41C
B34: Id_ii_S2_P5E.4_K5.3_C5.2_[C-2A]_[T-1A]_H5.3_A5.1_F5.1_T5.2_[T11C] (ssRNA)
RNA: B1 RNA with G28A, U29A, A40C, U41A
B35: Id_ii_S2_P5E.4_K5.3_C5.2_[C-2A]_[T-1C]_H5.3_A5.1_F5.1_T5.2_[T11C]_[A12G] (ssRNA)
RNA: B1 RNA with G28A, U29C, A40C, U41G
B36: Id_ii_S2_P5E.4_K5.3_C5.2_[C-2T]_H5.3_A5.1_F5.1_T5.2 (ssRNA)
RNA: B1 RNA with G28U, A40U, U41A
B37: Id_ii_S2_P5E.4_K5.3_C5.2_[C-2T]_[T-1A]_H5.3_A5.1_F5.1_T5.2_[T11A]_[A12C] (ssRNA)
RNA: B1 RNA with G28U, U29A, U41C
B38: Id_ii_S2_P5E.4_K5.3_C5.2_[C-2A]_[T-1A]_H5.3_A5.1_F5.1_T5.2_[T11C]_[A12C] (ssRNA)
RNA: B1 RNA with G28A, U29A, A40C, U41C
B39: Id_ii_S2_P5E.4_K5.3_C5.2_[C-2G]_H5.3_A5.1_F5.1_T5.2_[A12T] (ssRNA)
RNA: B1 RNA with A40U
B40: Id_ii_S2_P5E.4_K5.3_C5.2_[C-2T]_[T-1C]_H5.3_A5.1_F5.1_T5.2_[T11C]_[A12G] (ssRNA)
RNA: B1 RNA with G28U, U29C, A40C, U41G
B41: Id_ii_S2_P5E.4_K5.3_C5.2_[C-2A]_[T-1C]_H5.3_A5.1_F5.1_T5.2_[T11A]_[A12C] (ssRNA)
RNA: B1 RNA with G28A, U29C, U41C
B42: Ib_S1_P5E.1_K5.1_C5.1_H5.1_A5.1_[T6C]_F5.1_[T9C]_T5.1 (ssRNA)
RNA: UCUCUUUGUAUCAUCAUCUCUU
B43: Ib_S1_P5E.1_K5.1_C5.1_H5.1_A5.1_[T6C]_F5.1_[T9G]_T5.1 (ssRNA)
RNA: UCUCUUUGUAUCAUGAUCUCUU
B44: Ic_S1_P5E.1_K5.1_C5.1_H5.1_A5.1_[T5A]_F5.1_[T9C]_T5.1 (ssRNA)
RNA: UCUCUUUGUAAUAUCAUCUCUU
B45: Ib_S1_P5E.1_K5.1_C5.1_H5.1_A5.1_[T5A]_F5.1_[T9A]_T5.1 (ssRNA)
RNA: UCUCUUUGUAAUAUAAUCUCUU

Target: T1, PUF4 RNA-binding domain
Test: Mg; RNA-MaP; 20 mM Na-HEPES pH 7.4, 30 mM KOAc, 0.75 mM MgCl2, 0.1% Tween-20, 5% glycerol, 0.1 mg/mL BSA, 2 mM DTT; 25 C; 0.0125-409.6 nM protein
Settings: tags: N-His6-TEV cleaved; C-SNAP kept, Cy3B-labelled; label: tethered on chip by stalled RNA polymerase

Binder | Kd
B1 | 0.00137 µM
B2 | > 2.3 µM
B3 | > 2.3 µM
B4 | > 2.3 µM
B5 | 0.0022 µM
B6 | 0.00143 µM
B7 | > 2.3 µM
B8 | > 2.3 µM
B9 | > 2.3 µM
B10 | > 2.3 µM
B11 | > 2.3 µM
B12 | > 2.3 µM
B13 | 1.53 µM
B14 | > 2.3 µM
B15 | 1.93 µM
B16 | > 2.3 µM
B17 | > 2.3 µM
B18 | > 2.3 µM
B19 | 0.754 µM
B20 | > 2.3 µM
B21 | > 2.3 µM
B22 | > 2.3 µM
B23 | 0.79 µM

Binder | Kd
B24 | > 2.3 µM
B25 | > 2.3 µM
B26 | > 2.3 µM
B27 | 1.99 µM
B28 | 0.751 µM
B29 | > 2.3 µM
B30 | > 2.3 µM
B31 | > 2.3 µM
B32 | 0.00112 µM
B33 | 1.89 µM
B34 | > 2.3 µM
B35 | > 2.3 µM
B36 | 0.722 µM
B37 | > 2.3 µM
B38 | > 2.3 µM
B39 | 0.00125 µM
B40 | > 2.3 µM
B41 | > 2.3 µM
B42 | 0.0155 µM
B43 | 0.0249 µM
B44 | 0.0261 µM
B45 | 0.0033 µM
